Experimental findings from article PMC10786891, “Massively parallel profiling of RNA-targeting CRISPR-Cas13d” are described below.

The labels stand for the following.
B1: target 1 MT 5'PFS GCU 3'PFS UGC (mixed)
RNA 1: CACCCGUGCAAAAAUGCAGGGGUCUAAAACUGAGCGGAUAACCUCUCUAUGG
RNA 2: GGGAAUGGAUCCACAUCUACGAAUUCGCUCCAUAGAGAGGUUAUCCGCUCAUGCAGAUCGGAAGAGCACACGU
B2: target 1 MT 5'PFS GUC 3'PFS UUU (mixed)
RNA 1: CACCCGUGCAAAAAUGCAGGGGUCUAAAACUGAGCGGAUAACCUCUCUAUGG
RNA 2: GGGAAUGGAUCCACAUCUACGAAUUCGUCCCAUAGAGAGGUUAUCCGCUCAUUUAGAUCGGAAGAGCACACGU
B3: target 1 MT 5'PFS UGC 3'PFS CCC (mixed)
RNA 1: CACCCGUGCAAAAAUGCAGGGGUCUAAAACUGAGCGGAUAACCUCUCUAUGG
RNA 2: GGGAAUGGAUCCACAUCUACGAAUUCUGCCCAUAGAGAGGUUAUCCGCUCACCCAGAUCGGAAGAGCACACGU
B4: target 1 MT 5'PFS CUU 3'PFS AAA (mixed)
RNA 1: CACCCGUGCAAAAAUGCAGGGGUCUAAAACUGAGCGGAUAACCUCUCUAUGG
RNA 2: GGGAAUGGAUCCACAUCUACGAAUUCCUUCCAUAGAGAGGUUAUCCGCUCAAAAAGAUCGGAAGAGCACACGU
B5: target 1 MT 5'PFS ACA 3'PFS UGU (mixed)
RNA 1: CACCCGUGCAAAAAUGCAGGGGUCUAAAACUGAGCGGAUAACCUCUCUAUGG
RNA 2: GGGAAUGGAUCCACAUCUACGAAUUCACACCAUAGAGAGGUUAUCCGCUCAUGUAGAUCGGAAGAGCACACGU
B6: target 1 MT 5'PFS GAC 3'PFS AGC (mixed)
RNA 1: CACCCGUGCAAAAAUGCAGGGGUCUAAAACUGAGCGGAUAACCUCUCUAUGG
RNA 2: GGGAAUGGAUCCACAUCUACGAAUUCGACCCAUAGAGAGGUUAUCCGCUCAAGCAGAUCGGAAGAGCACACGU
B7: target 1 MT 5'PFS GGG 3'PFS AAG (mixed)
RNA 1: CACCCGUGCAAAAAUGCAGGGGUCUAAAACUGAGCGGAUAACCUCUCUAUGG
RNA 2: GGGAAUGGAUCCACAUCUACGAAUUCGGGCCAUAGAGAGGUUAUCCGCUCAAAGAGAUCGGAAGAGCACACGU
B8: target 1 MT 5'PFS UGC 3'PFS CCU (mixed)
RNA 1: CACCCGUGCAAAAAUGCAGGGGUCUAAAACUGAGCGGAUAACCUCUCUAUGG
RNA 2: GGGAAUGGAUCCACAUCUACGAAUUCUGCCCAUAGAGAGGUUAUCCGCUCACCUAGAUCGGAAGAGCACACGU
B9: target 1 MT 5'PFS CUU 3'PFS ACU (mixed)
RNA 1: CACCCGUGCAAAAAUGCAGGGGUCUAAAACUGAGCGGAUAACCUCUCUAUGG
RNA 2: GGGAAUGGAUCCACAUCUACGAAUUCCUUCCAUAGAGAGGUUAUCCGCUCAACUAGAUCGGAAGAGCACACGU
B10: target 1 MT 5'PFS GUC 3'PFS UUA (mixed)
RNA 1: CACCCGUGCAAAAAUGCAGGGGUCUAAAACUGAGCGGAUAACCUCUCUAUGG
RNA 2: GGGAAUGGAUCCACAUCUACGAAUUCGUCCCAUAGAGAGGUUAUCCGCUCAUUAAGAUCGGAAGAGCACACGU
B11: target 1 C6G,G13A (mixed)
RNA 1: CACCCGUGCAAAAAUGCAGGGGUCUAAAACUGAGCGGAUAACCUCUCUAUGG
RNA 2: GGGAAUGGAUCCACAUCUACGAAUUCGUACCAUAGAGAAGUUAUCGGCUCACCGAGAUCGGAAGAGCACACGU
B12: target 1 insC 3' of 16,insA 3' of 4 (mixed)
RNA 1: CACCCGUGCAAAAAUGCAGGGGUCUAAAACUGAGCGGAUAACCUCUCUAUGG
RNA 2: GGGAAUGGAUCCACAUCUACGAAUUCGUACCAUAGACGAGGUUAUCCGCAUCACCGAGAUCGGAAGAGCACACGU
B13: target 1 MT 5'PFS ACA 3'PFS UGA (mixed)
RNA 1: CACCCGUGCAAAAAUGCAGGGGUCUAAAACUGAGCGGAUAACCUCUCUAUGG
RNA 2: GGGAAUGGAUCCACAUCUACGAAUUCACACCAUAGAGAGGUUAUCCGCUCAUGAAGAUCGGAAGAGCACACGU
B14: target 1 MT 5'PFS GUA 3'PFS CGG (mixed)
RNA 1: CACCCGUGCAAAAAUGCAGGGGUCUAAAACUGAGCGGAUAACCUCUCUAUGG
RNA 2: GGGAAUGGAUCCACAUCUACGAAUUCGUACCAUAGAGAGGUUAUCCGCUCACGGAGAUCGGAAGAGCACACGU
B15: target 1 MT 5'PFS GGG 3'PFS ACC (mixed)
RNA 1: CACCCGUGCAAAAAUGCAGGGGUCUAAAACUGAGCGGAUAACCUCUCUAUGG
RNA 2: GGGAAUGGAUCCACAUCUACGAAUUCGGGCCAUAGAGAGGUUAUCCGCUCAACCAGAUCGGAAGAGCACACGU
B16: target 1 MT 5'PFS GAC 3'PFS AGU (mixed)
RNA 1: CACCCGUGCAAAAAUGCAGGGGUCUAAAACUGAGCGGAUAACCUCUCUAUGG
RNA 2: GGGAAUGGAUCCACAUCUACGAAUUCGACCCAUAGAGAGGUUAUCCGCUCAAGUAGAUCGGAAGAGCACACGU
B17: target 1 MT 5'PFS UCA 3'PFS UGU (mixed)
RNA 1: CACCCGUGCAAAAAUGCAGGGGUCUAAAACUGAGCGGAUAACCUCUCUAUGG
RNA 2: GGGAAUGGAUCCACAUCUACGAAUUCUCACCAUAGAGAGGUUAUCCGCUCAUGUAGAUCGGAAGAGCACACGU
B18: target 1 MT 5'PFS GCU 3'PFS GCU (mixed)
RNA 1: CACCCGUGCAAAAAUGCAGGGGUCUAAAACUGAGCGGAUAACCUCUCUAUGG
RNA 2: GGGAAUGGAUCCACAUCUACGAAUUCGCUCCAUAGAGAGGUUAUCCGCUCAGCUAGAUCGGAAGAGCACACGU
B19: target 1 MT 5'PFS UUG 3'PFS ACU (mixed)
RNA 1: CACCCGUGCAAAAAUGCAGGGGUCUAAAACUGAGCGGAUAACCUCUCUAUGG
RNA 2: GGGAAUGGAUCCACAUCUACGAAUUCUUGCCAUAGAGAGGUUAUCCGCUCAACUAGAUCGGAAGAGCACACGU
B20: target 1 MT 5'PFS GGG 3'PFS AAC (mixed)
RNA 1: CACCCGUGCAAAAAUGCAGGGGUCUAAAACUGAGCGGAUAACCUCUCUAUGG
RNA 2: GGGAAUGGAUCCACAUCUACGAAUUCGGGCCAUAGAGAGGUUAUCCGCUCAAACAGAUCGGAAGAGCACACGU
B21: target 1 MT 5'PFS GAC 3'PFS AGA (mixed)
RNA 1: CACCCGUGCAAAAAUGCAGGGGUCUAAAACUGAGCGGAUAACCUCUCUAUGG
RNA 2: GGGAAUGGAUCCACAUCUACGAAUUCGACCCAUAGAGAGGUUAUCCGCUCAAGAAGAUCGGAAGAGCACACGU
B22: target 1 MT 5'PFS CUU 3'PFS UCU (mixed)
RNA 1: CACCCGUGCAAAAAUGCAGGGGUCUAAAACUGAGCGGAUAACCUCUCUAUGG
RNA 2: GGGAAUGGAUCCACAUCUACGAAUUCCUUCCAUAGAGAGGUUAUCCGCUCAUCUAGAUCGGAAGAGCACACGU
B23: target 1 MT 5'PFS CUU 3'PFS ACA (mixed)
RNA 1: CACCCGUGCAAAAAUGCAGGGGUCUAAAACUGAGCGGAUAACCUCUCUAUGG
RNA 2: GGGAAUGGAUCCACAUCUACGAAUUCCUUCCAUAGAGAGGUUAUCCGCUCAACAAGAUCGGAAGAGCACACGU
B24: target 1 MT 5'PFS GGC 3'PFS UAU (mixed)
RNA 1: CACCCGUGCAAAAAUGCAGGGGUCUAAAACUGAGCGGAUAACCUCUCUAUGG
RNA 2: GGGAAUGGAUCCACAUCUACGAAUUCGGCCCAUAGAGAGGUUAUCCGCUCAUAUAGAUCGGAAGAGCACACGU
B25: target 1 MT 5'PFS UGC 3'PFS CCG (mixed)
RNA 1: CACCCGUGCAAAAAUGCAGGGGUCUAAAACUGAGCGGAUAACCUCUCUAUGG
RNA 2: GGGAAUGGAUCCACAUCUACGAAUUCUGCCCAUAGAGAGGUUAUCCGCUCACCGAGAUCGGAAGAGCACACGU
B26: target 1 MT 5'PFS GGA 3'PFS CAU (mixed)
RNA 1: CACCCGUGCAAAAAUGCAGGGGUCUAAAACUGAGCGGAUAACCUCUCUAUGG
RNA 2: GGGAAUGGAUCCACAUCUACGAAUUCGGACCAUAGAGAGGUUAUCCGCUCACAUAGAUCGGAAGAGCACACGU
B27: target 1 MT 5'PFS GAA 3'PFS AUC (mixed)
RNA 1: CACCCGUGCAAAAAUGCAGGGGUCUAAAACUGAGCGGAUAACCUCUCUAUGG
RNA 2: GGGAAUGGAUCCACAUCUACGAAUUCGAACCAUAGAGAGGUUAUCCGCUCAAUCAGAUCGGAAGAGCACACGU

The target in this data set is T1, EsCas13d, nuclease-dead (Eubacterium siraeum, UniProt B0MS50, R295A;H300A;R849A;H854A).
T1 sequence: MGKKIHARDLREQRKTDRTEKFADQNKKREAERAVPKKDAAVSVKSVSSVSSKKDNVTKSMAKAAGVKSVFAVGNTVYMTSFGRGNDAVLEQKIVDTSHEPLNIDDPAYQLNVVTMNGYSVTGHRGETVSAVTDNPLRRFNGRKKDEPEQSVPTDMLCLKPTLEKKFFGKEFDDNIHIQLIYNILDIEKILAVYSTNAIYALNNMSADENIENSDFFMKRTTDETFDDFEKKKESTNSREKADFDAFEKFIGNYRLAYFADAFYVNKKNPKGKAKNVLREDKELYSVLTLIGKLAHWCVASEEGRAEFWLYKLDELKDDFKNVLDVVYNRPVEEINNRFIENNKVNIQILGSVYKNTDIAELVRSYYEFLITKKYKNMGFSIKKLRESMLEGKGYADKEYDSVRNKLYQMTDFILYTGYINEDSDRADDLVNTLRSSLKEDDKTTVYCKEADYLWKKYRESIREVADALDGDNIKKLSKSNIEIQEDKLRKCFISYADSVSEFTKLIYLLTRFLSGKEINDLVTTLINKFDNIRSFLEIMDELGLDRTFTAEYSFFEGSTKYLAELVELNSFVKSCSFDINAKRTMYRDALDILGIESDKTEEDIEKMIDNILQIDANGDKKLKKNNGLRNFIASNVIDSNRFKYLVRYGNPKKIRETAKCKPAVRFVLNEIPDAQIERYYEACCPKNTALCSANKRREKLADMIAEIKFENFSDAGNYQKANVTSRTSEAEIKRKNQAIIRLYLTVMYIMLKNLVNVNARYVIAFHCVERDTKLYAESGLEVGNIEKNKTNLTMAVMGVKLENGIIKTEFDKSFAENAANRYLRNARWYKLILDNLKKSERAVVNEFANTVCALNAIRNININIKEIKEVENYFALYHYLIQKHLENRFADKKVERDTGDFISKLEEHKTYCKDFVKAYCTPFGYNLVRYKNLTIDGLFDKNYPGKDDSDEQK
Description: crRNA (strand 1, pre-loaded); Mg2+; 40 mM Tris-HCl pH 7.5, 150 mM NaCl, 6 mM MgCl2, 1 mM DTT, 0.1% Tween-20, 0.2 mg/ml BSA; 25 C; 10 min per concentration, then washed. The note with it: tags: His6-TwinStrep-SUMO cleaved; N-terminal SNAP kept (SNAP-Surface 488); label: 3' end held by stalled T7 RNA polymerase.
In general, Kd refers to the concentration at which binding is half-saturated. Read a high Kd as weaker binding. The molecule B1 gave a Kd of 0.038 ± 0.007 µM.

B2 had a Kd of 0.0151 ± 0.0043 µM.

As for B3, the Kd is roughly 0.023 µM.

For the molecule B4, the Kd was roughly 0.07 µM.

In the case of B5, binding was put at a Kd of 0.045 ± 0.012 µM.

With B6, the Kd was found to be 0.0136 ± 0.0026 µM.

Take B7: the affinity, expressed as Kd, was 0.0239 ± 0.00325 µM.

In turn, B8 returned a Kd of 0.0155 ± 0.0045 µM.

B9 gave a Kd of 0.0295 ± 0.0105 µM.

For the molecule B10, binding was put at a Kd of 0.0122 ± 0.00245 µM.

On to B11, for which the equilibrium dissociation constant (Kd) came out at 0.0101 ± 0.0007 µM.

Consider B12, for which the Kd was found to be 0.038 ± 0.017 µM.

The molecule B13 returned a Kd of 0.0155 ± 0.0045 µM.

Regarding B14, the dissociation constant (Kd) came out at 0.0152 ± 0.00115 µM.

As to B15, binding was characterised by a dissociation constant (Kd) of 0.0255 ± 0.0085 µM.

As for B16, the Kd was 0.0355 ± 0.0105 µM.

With B17, the Kd came to 0.0285 ± 0.005 µM.

The molecule B18 displayed a Kd of 0.017 ± 0.005 µM.

B19 had a Kd of 0.021 ± 0.005 µM.

For the molecule B20, binding was characterised by a dissociation constant (Kd) of 0.0355 ± 0.0085 µM.

In the case of B21, binding was put at a Kd of 0.028 ± 0.014 µM.

Molecule B22 yielded a Kd of 0.0305 ± 0.009 µM.

B23 registered a Kd of roughly 0.0655 µM.

B24 yielded a Kd of 0.016 ± 0.004 µM.

B25 yielded a Kd of 0.0118 ± 0.00385 µM.

Consider B26, for which the affinity, expressed as Kd, was 0.0505 ± 0.018 µM.

The molecule B27 returned a Kd of 0.043 ± 0.015 µM.
